According to patent US11680267B2, “Co-regulatory sequences based on tetracycline and Cumate” (Shenzhen Eureka Biotechnology Co., Ltd., priority 2020, dated 2023):

Experiments:
Format in all cases: cell-based
[1] = test system: 293T-rtTA3G-CymR cells; assay: Luciferase fluorescence intensity assay, transient transfection, both DOX and Cumate vs DOX alone (Example 2); details: for induced expression level: transient transfection, 24 hours after transfection
Source text: The experiment described in the present Example is to study and verify the effect of the position and copy number of the CuO operator in the Tet-On and Cumate complex response element on the induced expression level and non-induced leaky expression level of the complex response element, and to optimize and confirm the optimal position and copy number of the CuO operator. In the present Example, based on the 7×TetO sequence in the TRE3G response element and the minimal promoter sequence #1 (SEQ ID NO: 25), the response elements TRE3GCuO14 (10-317 bp in SEQ ID NO: 8), TRE3GCuO30 (SEQ ID NO: 28), TRE3GCuO50 (SEQ ID NO: 23) and TRE3GCuO100 (10-403 bp in SEQ ID NO: 10) were designed by linking a CuO operator sequence at 10 bp to 100 bp downstream of the TATA box (at 14 bp, 30 bp, 50 bp and 100 bp downstream of the TATA box, respectively), and a Luciferase reporter gene sequence was linked downstream of the 3′ end of the above response elements, to construct plasmids 18BF251, 18BF252, 18BF235 and 18BF253. Further, in order to study the effect of multiple copies of CuO operators, 2, 4 and 6 copies of CuO operator sequences were respectively inserted at 50 bp downstream of the TATA box, to design the response elements TRE3GCuO2x (10-411 bp in SEQ ID NO: 11), TRE3GCuO4x (10-527 bp in SEQ ID NO: 12) and TRE3GCuO6x (10-643 bp in SEQ ID NO: 13), and then a Luciferase reporter gene sequence was linked downstream of 3′ end of the above response elements to construct plasmids 18BF254, 18BF255 and 18BF256. In 293T-rtTA3G-CymR cells stably expressing rtTA3G and CymR genes, the above plasmids were transiently transfected, and the optimal position and number of CuO operator were validated by measuring the luciferase […] value of samples added with both DOX and Cumate inducers and that of the control added with the DOX inducer only. The specific experimental methods were as follows:
(§1) 293T cells were seeded at 1.5E+06 cells per 60 mm culture dish, and cultured in DMEM (Sigam, D6429) complete medium supplemented with 10% FBS (ExCell, 11H116) at 37° C. and 5% CO 2. After 24 hours of culture, transfection was carried out according to the PEI method. During transfection, 500 μL of transfection reagent which contained 5.5 ug of total plasmid was added to each 60 mm culture dish, and the mass ratio of total plasmid to PEI MAX (Polysciences, 24765-1) was 1:4. The transfection was carried out according to the PEI method, wherein the amount of total plasmid was 5.5 μg. The transfection was performed with plasmids 19BF074:18BF019 at a molar ratio of 10:1 to obtain 293T-rtTAadv-CymR cells; and the transfection was performed with plasmids 19BF075:18BF019 at a molar ratio of 10:1 to obtain 293T-rtTA3G-CymR cells. The plasmid and PEI MAX were mixed uniformly, and then put into a culture dish after standing for 15 minutes. 3 hours after transfection, the medium was changed to a complete DMEM medium, and the transfection operation was completed. After 24 hours of transfection, the cells were digested with trypsin and all seeded in a 100 mm culture dish (Corning, 430167), and 200 μg/ml of hygromycin (Sangon Biotech A600230-0001) drug screening was performed for at least three passages. After the growth of cells under the pressure of drug screening was consistent with that of the original 293T cells, the following experiments were performed.
The 293T-rtTA3G-CymR cells were seeded in a 96-well plate (Corning 3916) at 2.5E+04 cells per well, and the medium was 100 microliters of DMEM complete medium. […]

[2] = test system: 293T-rtTA3G-CymR cells; assay: as above; details: for induced expression level as % of the induced expression level for TREadv response element: 1 ug/ml DOX and 200 ug/ml Cumate; for ratio of induced/leaky expression level based on Cumate inducible expression system, relative to that for the TREadv response element: DOX and Cumate vs DOX only
[3] = test system: 293T-rtTAadv-CymR cells; assay: Luciferase assay, transient transfection, DOX and Cumate vs no inducer (Example 3), rtTAadv cells
Method: as §1
(§2) In Tet-On inducible expression system, the induced transcription activity and the leaky transcription activity were comprehensively affected by the TetO operator linking sequence of the TRE response element and the minimal promoter sequence, as well as different mutants of the transactivator rtTA. In addition, the transport and stability of messenger ribonucleic acid may be enhanced by linking a spliceable intron sequence downstream of the 3′ end of the response element and upstream of the 5′ end of the regulated nucleic acid fragment of interest, but the induced transcription activity and leaky transcription activity of response element of the inducible expression system may also be affected. Based on this, the optimal design scheme of complex response element was determined in this Example based on the induced expression level and the ratio of induced/leaky expression level of Luciferase gene under the combination of the following conditions: (1) Tet-On and Cumate complex response elements TREadvCuO and TRE3GCuO designed based on the TREadv and TRE3G response element sequences; (2) whether an intron was linked; (3) being regulated by the transactivator rtTAadv or rtTA3G. A total of 8 design schemes were compared in this Example: TREadv (18BF232), TREadvCuO (18BF233), TRE3G (18BF234), TRE3GCuO (18BF235), TREadv-BGI (18BF240, wherein the response element was TREadv, and a human β-globulin intron was linked between the 3′ end of the response element and the 5′ end of the Luciferase gene), TREadvCuO-BGI (18BF241, wherein the response element was TREadvCuO, and a human β-globulin intron was linked between the 3′ end of the response element and the 5′ end of the Luciferase gene), TRE3G-BGI (18BF236, wherein the response element was TRE3G, and a human β-globulin intron was linked between the 3′ end of the response element and the 5′ end of the Luciferase gene) and TRE3GCuO-BGI (18BF237, wherein the response element was TRE3GCuO, and a human β-globulin intron was linked between the 3′ end of the response element and the 5′ end of the Luciferase gene). The promoter CMV-BGI (18BF229, wherein the promoter was CMV, and a human β-globulin intron was linked between the 3′ end of the CMV promoter and the 5′ end of the Luciferase gene) was used as a positive control. […]

[4] = test system: 293T-rtTA3G-CymR cells; assay: Luciferase assay, transient transfection, DOX and Cumate vs no inducer (Example 3), rtTA3G cells; details: 293T-rtTA3G-CymR cells
Method: as §1, §2

[5] = 1 ug/ml DOX and 200 ug/ml Cumate

Molecule | induced expression level as % of the induced expression level of TRE3G response element [1, 5] | ratio of induced/leaky expression level based on Cumate inducible expression system, relative to that of TRE3G response element ([1]; DOX and Cumate vs DOX only) | induced expression level [1, 5] | induced expression level as % of the induced expression level for TREadv response element [2] | ratio of induced/leaky expression level based on Cumate inducible expression system, relative to that for the TREadv response element [2] | induced expression level as % of that of the corresponding TRE3G or TREadv single regulatory response element ([3]; DOX and Cumate) | induced/leaky expression ratio ([3]; DOX and Cumate vs no inducer) | induced expression level as % of that of the single regulatory response element ([4]; DOX and Cumate) | induced/leaky expression ratio ([4]; DOX and Cumate vs no inducer)
TRE3GCuO30: Tet-On (TRE3G) and Cumate complex response element, CuO 30 bp behind the TATA box (SEQ ID NO: 28) (nucleic acid, TRE3GCuO30 response element sequence) DNA: TCCCTATCAGTGATAGAGAACGTATGAAGAGTTTACTCCCTATCAGTGATAGAGAACGTATGCAGACTTTACTCCCTATCAGTGATAGAGAACGTATAAGGAGTTTACTCCCTATCAGTGATAGAGAACGTATGACCAGTTTACTCCCTATCAGTGATAGAGAACGTATCTACAGTTTACTCCCTATCAGTGATAGAGAACGTATATCCAGTTTACTCCCTATCAGTGATAGAGAACGTATTAGGCGTGTACGGTGGGCGCCTATAAAAGCAGAGCTCGTTTAGTGAACCGTCAGATACAAACAGACCAGATTGTCTGTTTGTT | 44.5% | 4.21 times | 3.06E+06 RLU | – | – | – | – | – | –
TREadvCuO32: Tet-On (TREadv) and Cumate complex response element, CuO 32 bp behind the TATA box (SEQ ID NO: 29) (nucleic acid, TREadvCuO32 response element sequence) DNA: TCCCTATCAGTGATAGAGAACGTATGTCGAGTTTACTCCCTATCAGTGATAGAGAACGATGTCGAGTTTACTCCCTATCAGTGATAGAGAACGTATGTCGAGTTTACTCCCTATCAGTGATAGAGAACGTATGTCGAGTTTACTCCCTATCAGTGATAGAGAACGTATGTCGAGTTTATCCCTATCAGTGATAGAGAACGTATGTCGAGTTTACTCCCTATCAGTGATAGAGAACGTATGTCGAGGTAGGCGTGTACGGTGGGAGGCCTATATAAGCAACCGGTGTTTAGTGAACCGTCAGATCTACAAACAGACCAGATTGTCTGTTTGTT | – | – | 3.26+06 RLU | 37.8% | 4.97 times | – | – | – | –
TREadvCuO: Tet-On (7xTetO of TREadv) and Cumate complex response element, CuO 52 bp behind the TATA box (SEQ ID NO: 30) (nucleic acid, TREadvCuO52 response element sequence) DNA: TCCCTATCAGTGATAGAGAACGTATGTCGAGTTTACTCCCTATCAGTGATAGAGAACGATGTCGAGTTTACTCCCTATCAGTGATAGAGAACGTATGTCGAGTTTACTCCCTATCAGTGATAGAGAACGTATGTCGAGTTTACTCCCTATCAGTGATAGAGAACGTATGTCGAGTTTATCCCTATCAGTGATAGAGAACGTATGTCGAGTTTACTCCCTATCAGTGATAGAGAACGTATGTCGAGGTAGGCGTGTACGGTGGGAGGCCTATATAAGCAACCGGTGTTTAGTGAACCGTCAGATCGCCTGGAGACGCCATCATAATACAAACAGACCAGATTGTCTGTTTGTT | – | – | 4.88E+06 RLU | 53.4% | 3.23 times | 36.3% | 1345 times | 40.3% | 1915 times
